Publication PMC8207774, “NtbHLH1, a JAF13-like bHLH, interacts with NtMYB6 to enhance proanthocyanidin accumulation in Chinese Narcissus” (BMC Plant Biology, 2021)

Target: T1, NtbHLH1 (Chinese narcissus (Narcissus tazetta L. …, UniProt A0A517FM44 1-631))
T1 sequence (looked up): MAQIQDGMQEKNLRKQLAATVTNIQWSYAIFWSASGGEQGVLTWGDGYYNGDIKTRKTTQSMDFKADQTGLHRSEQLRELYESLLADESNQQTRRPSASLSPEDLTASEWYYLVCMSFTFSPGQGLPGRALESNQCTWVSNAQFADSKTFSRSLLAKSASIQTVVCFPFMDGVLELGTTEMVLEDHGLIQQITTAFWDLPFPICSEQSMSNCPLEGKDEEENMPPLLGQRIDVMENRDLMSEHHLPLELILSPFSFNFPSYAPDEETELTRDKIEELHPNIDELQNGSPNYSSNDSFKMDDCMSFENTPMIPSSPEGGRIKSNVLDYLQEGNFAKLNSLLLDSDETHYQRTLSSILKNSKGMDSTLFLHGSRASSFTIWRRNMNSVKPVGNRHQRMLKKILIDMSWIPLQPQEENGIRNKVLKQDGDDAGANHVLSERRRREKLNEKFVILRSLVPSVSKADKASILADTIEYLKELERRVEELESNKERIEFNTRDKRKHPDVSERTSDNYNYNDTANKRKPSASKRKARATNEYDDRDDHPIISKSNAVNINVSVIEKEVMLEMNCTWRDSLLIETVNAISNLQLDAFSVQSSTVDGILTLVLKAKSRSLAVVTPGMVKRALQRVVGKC
Test: cell-based or functional assay

B1: NtMYB6 (natural protein, UniProt A0A1U9X216 1-249, looked up)
chain: MGRAPCCSKVGLHRGPWTAREDALLTNYIQCHGEGNWRSLPKNAGLLRCGKSCRLRWMNYLRPDIKRGNIGPEEEDLIIRLHSLLGNRWSIIAGRLPGRTDNEIKNYWNSHLSKKLKKQGIQVRGNLSSKQSKSSKMNNNDNNNNLEKRKNIKETPKIKIHAPKPTRFTRTISQSSSSCQANNVENVTSEDERCDIPWTNAESQDDIFAPGSWNYELFDIDRVYQEYSQLLNGEDDQFPMASFTESVFA
NtDFR promoter activity, dual luciferase assay in N. benthamiana leaves, co-infiltration of NtbHLH1 and NtMYB6 compared to NtMYB6 alone: ~8 fold | NtDFR promoter activity, dual luciferase assay in N. benthamiana leaves, co-infiltration of NtbHLH1 and NtMYB6 compared to the control: ~14 fold
